Reduction of co-immunoprecipitated Crm1 against wild-type HA-RanBP2 and other: fraction of bound Crm1-Cy3 data for two substances are collected here from paper PMC4866044.

The target in assay [1] is HA-RanBP2 mFG1/2, full-length (human) (UniProt P49792). The assay is described as follows: co-IP; αHA-agarose immunoprecipitation from nocodazole-arrested HEK293T cells depleted of endogenous RanBP2 by siRNA and transfected with HA-RanBP2 constructs; Crm1 blot normalised to HA-RanBP2, three biological replicates.
A further assay addresses Cy3-labelled Crm1 (UniProt O14980). Description: MST. As to conditions: Cy3-labelled Crm1 20 nM; RanBP2-3/4 fragments 0.3 nM-10 μM; no RanQ69L; laser-power 70%, LED-power 20%; parent: est. 0.94; read off a plot.

For the substance “Crm1, endogenous (HEK293T) (from UniProt O14980 1-1071) (natural protein)”, in assay [1], the reduction of co-immunoprecipitated Crm1 against wild-type HA-RanBP2 was 40%.

Regarding “RanBP2-3/4-His (aa 2,304–3,062), free fragment (from UniProt P49792) mFG12 (= mFG1/2, 11 F to S mutations in both FG-repeat patches; positions not printed)”, the other: fraction of bound Crm1-Cy3 at the highest RanBP2-3/4 concentration (10,000 nM) with Cy3-labelled Crm1 was found to be 0.04.
